Reference: the supplement of paper PMC10724198
± gives the standard deviation of the averaged measurements.

Test system: Saccharomyces cerevisiae
Assay: protein stability index of tFT-peptide fusion (C-terminal peptide) (PSI (0-1 scale)); higher = more stable (slower turnover)
Conditions: temperature: 30 C
Method: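 MPS profiling in S. cerevisiae of the yeast C-terminome library: the last 12 aa of each annotated ORF are fused to the C-terminus of a sfGFP-mCherry timer, after a GGGS linker. Cells are FACS-sorted into 8 mCherry/sfGFP bins and deep-sequenced. PSI runs from 0 (unstable) to 1 (stable); wild type and das1Δ backgrounds, two technical replicates each.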

[1] = genetic background: das1 deletion

Sequence	protein stability index [1]	protein stability index (genetic background: wild type)
ESPTEDSVPHAE [CSA1 C-terminal 12 aa]	0.709 ± 0.018	0.687 ± 0.032
RPMPPIRGPKRR [SMD3 C-terminal 12 aa]	0.688 ± 0.017	0.724 ± 0.048
SFFLRNFFPSLF [YDL159W-A C-terminal 12 aa]	0.756 ± 0.026	0.246 ± 0.022
QIEWVDINRVTY [RAD50 C-terminal 12 aa]	0.732 ± 0.014	0.735 ± 0.052
IAPIRIYKITKQ [EFM3 C-terminal 12 aa]	0.686 ± 0.028	0.677 ± 0.039
ETDSESEVESIM [SYG1 C-terminal 12 aa]	0.697 ± 0.036	0.675 ± 0.025
AGVNSARGVLRI [SFT2 C-terminal 12 aa]	0.6898 ± 0.0045	0.71 ± 0.023
VDDSDGDETMQI [TDA1 C-terminal 12 aa]	0.70725 ± 0.00053	0.7369 ± 0.0011
DLDLDLFDPDDF [MED4 C-terminal 12 aa]	0.7055 ± 0.0036	0.684 ± 0.044
SSLPYDILPALL [YGL199C C-terminal 12 aa]	0.703 ± 0.004	0.6882 ± 0.0011
DSDNAAPLHDEL [KRE5 C-terminal 12 aa]	0.687 ± 0.017	0.685 ± 0.048
MPGGMPGMPGMM [HSP60 C-terminal 12 aa]	0.7 ± 0.00077	0.709 ± 0.0041
THQKKIAKKKHQ [YPR015C C-terminal 12 aa]	0.741 ± 0.053	0.695 ± 0.014
YLADELSKALLA [RFA1 C-terminal 12 aa]	0.673 ± 0.0099	0.6545 ± 0.0044
AERFDNTEVLHL [STE13 C-terminal 12 aa]	0.7011 ± 0.0037	0.689 ± 0.035
PCALYFKDHTAY [HUA2 C-terminal 12 aa]	0.699 ± 0.021	0.7209 ± 0.0011
CLFRYKQLPRRV [MCH2 C-terminal 12 aa]	0.69 ± 0.073	0.687 ± 0.029
PFEDKFEIHDER [OPY2 C-terminal 12 aa]	0.74255 ± 0.00063	0.7692 ± 0.00091
DRKRRKLLWYQA [MRPL20 C-terminal 12 aa]	0.718 ± 0.045	0.2489 ± 0.00046
PQCGQVLSKGST [YGL132W C-terminal 12 aa]	0.703 ± 0.0092	0.69 ± 0.063
LYVTVFNRSDEA [AVT7 C-terminal 12 aa]	0.6773 ± 0.0036	0.6811 ± 0.0037

Sequence	protein stability index [1]	protein stability index (genetic background: wild type)
SRRRPFIGPETV [YMR057C C-terminal 12 aa]	0.709 ± 0.037	0.703 ± 0.0072
TPQEILQRFQKQ [EAF1 C-terminal 12 aa]	0.6812 ± 0.0053	0.732 ± 0.029
SHDMDFNNAGDF [HMS1 C-terminal 12 aa]	0.707 ± 0.03	0.7067 ± 0.0045
LRLKGNAKAPGA [CLC1 C-terminal 12 aa]	0.70418 ± 0.00015	0.729 ± 0.012
KETFIQVWEKQE [SAD1 C-terminal 12 aa]	0.663 ± 0.0072	0.651 ± 0.019
LYKRWVPGRNRD [SEN2 C-terminal 12 aa]	0.696 ± 0.0095	0.696 ± 0.034
KTPNTKRRKTHK [HAS1 C-terminal 12 aa]	0.745 ± 0.024	0.75 ± 0.036
VMAWTFGYALIG [EMC6 C-terminal 12 aa]	0.654 ± 0.015	0.452 ± 0.014
ANKKARHFNNSA [VAM7 C-terminal 12 aa]	0.687 ± 0.017	0.698 ± 0.019
NTTHYNDTLLKQ [PHO3 C-terminal 12 aa]	0.738 ± 0.0097	0.6619 ± 0.0058
IKTDSVHELLKK [MFM1 C-terminal 12 aa]	0.704 ± 0.018	0.696 ± 0.0083
GNIVSQDLLDLF [APL2 C-terminal 12 aa]	0.724 ± 0.034	0.7 ± 0.012
CLQTESETDIET [LIF1 C-terminal 12 aa]	0.661 ± 0.0085	0.674 ± 0.013
SVYEHEHEKTFI [FUR4 C-terminal 12 aa]	0.7127 ± 0.0018	0.706 ± 0.0091
LGKGGKGKRKMK [LSO2 C-terminal 12 aa]	0.705 ± 0.027	0.64 ± 0.018
AGTDKSQRCAIM [GIS4 C-terminal 12 aa]	0.758 ± 0.018	0.695 ± 0.056
VLHSIISICRIF [VPS65 C-terminal 12 aa]	0.756 ± 0.014	0.641 ± 0.036
KQKAFIQPKLVF [UTP4 C-terminal 12 aa]	0.691 ± 0.018	0.692 ± 0.017
EHCPGVNEDDHK [CMG1 C-terminal 12 aa]	0.703 ± 0.011	0.701 ± 0.026
KMFAKYRENSRI [DYN3 C-terminal 12 aa]	0.692 ± 0.017	0.667 ± 0.0047
RPFYKRMFTKEK [HXT5 C-terminal 12 aa]	0.7313 ± 0.0058	0.732 ± 0.033

Sequence	protein stability index [1]	protein stability index (genetic background: wild type)
LSAETGIRGEGE [YIL100W C-terminal 12 aa]	0.6849 ± 0.0034	0.71 ± 0.029
DFPHEAVVREML [TVP18 C-terminal 12 aa]	0.7167 ± 0.0023	0.6914 ± 0.0026
QLESDPPPCDDY [RIM8 C-terminal 12 aa]	0.7171 ± 0.0053	0.689 ± 0.039
QGHGPVSPSPTK [PTM1 C-terminal 12 aa]	0.701 ± 0.022	0.723 ± 0.086
PEHPGNKRAGSG [YER145C-A C-terminal 12 aa]	0.6885 ± 0.00081	0.6979 ± 0.0024
KKEPGANCCIIL [RHO2 C-terminal 12 aa]	0.743 ± 0.02	0.72 ± 0.021
PYNFIQLLHQGL [HOF1 C-terminal 12 aa]	0.725 ± 0.011	0.709 ± 0.012
VPLKEELFPSSS [COX6 C-terminal 12 aa]	0.718 ± 0.025	0.674 ± 0.0019
LLEDEDRTYNYT [KCH1 C-terminal 12 aa]	0.6892 ± 0.0059	0.718 ± 0.069
TPENNHLKWLIK [UGX2 C-terminal 12 aa]	0.716 ± 0.024	0.685 ± 0.035
GMISKSLKIPKP [CHO1 C-terminal 12 aa]	0.661 ± 0.0085	0.698 ± 0.0082
LAEVIGVLLKDM [AIM10 C-terminal 12 aa]	0.69483 ± 0.00037	0.646 ± 0.038
ATTSLNNPYGFR [TOS7 C-terminal 12 aa]	0.675 ± 0.0069	0.663 ± 0.03
GDDDIDDDDDMI [TVP15 C-terminal 12 aa]	0.691 ± 0.023	0.677 ± 0.023
KGNSMVVHGAQS [SHE3 C-terminal 12 aa]	0.687 ± 0.026	0.6853 ± 0.0059
QSRYDNSRANRR [RAT1 C-terminal 12 aa]	0.7257 ± 0.0043	0.731 ± 0.099
IEKNHAKFTDLT [CSH1 C-terminal 12 aa]	0.7074 ± 0.0034	0.731 ± 0.017
NRSSKIVSIRED [CPR8 C-terminal 12 aa]	0.702 ± 0.03	0.714 ± 0.028
ANMAAYDKAIHC [LPD1 C-terminal 12 aa]	0.681 ± 0.018	0.708 ± 0.033
QIITISNANSHA [MBP1 C-terminal 12 aa]	0.705 ± 0.026	0.688 ± 0.038
SCFSYSVGSKFT [YPR170W-A C-terminal 12 aa]	0.7068 ± 0.0063	0.703 ± 0.014

Sequence	protein stability index [1]	protein stability index (genetic background: wild type)
GKQLLSPMGRAF [TKL2 C-terminal 12 aa]	0.679 ± 0.022	0.6529 ± 0.0014
LKNYLEAQIAKK [YPR097W C-terminal 12 aa]	0.692 ± 0.03	0.721 ± 0.016
LTVLCVILGYVL [UTR2 C-terminal 12 aa]	0.5761 ± 0.00066	0.645 ± 0.048
RDLPSVLAKYGF [RRG1 C-terminal 12 aa]	0.7236 ± 0.0048	0.703 ± 0.04
LRTTSSMEKKLN [ALG3 C-terminal 12 aa]	0.7064 ± 0.00072	0.205 ± 0.0049
IKKGTPNNIAFL [YJL197C-A C-terminal 12 aa]	0.7027 ± 0.0063	0.704 ± 0.017
ENVEEDKEVHTN [PBI2 C-terminal 12 aa]	0.675 ± 0.036	0.6976 ± 0.0046
GLEHSDPFSTFY [DBF2 C-terminal 12 aa]	0.71206 ± 0.0003	0.712 ± 0.025
VYKDWEMNLMLS [ARG81 C-terminal 12 aa]	0.727 ± 0.025	0.656 ± 0.024
IPKIPKIVNGFK [DCS1 C-terminal 12 aa]	0.694 ± 0.012	0.6501 ± 0.0018
QTSAKISIRLLY [SER3 C-terminal 12 aa]	0.6607 ± 0.00096	0.582 ± 0.0062
TRFFDSKYFGCD [URK1 C-terminal 12 aa]	0.701 ± 0.0078	0.73 ± 0.072
LYGKYNYAAQKV [YDL124W C-terminal 12 aa]	0.692 ± 0.013	0.333 ± 0.014
GIPNLLLPPHLV [TRM112 C-terminal 12 aa]	0.707 ± 0.014	0.691 ± 0.007
VLDVGSVLDVTI [PSR2 C-terminal 12 aa]	0.718 ± 0.035	0.6934 ± 0.00093
KLGSYLRDYLRK [GLO3 C-terminal 12 aa]	0.707 ± 0.0072	0.689 ± 0.0095
NIRIVNGLQNTR [TIM8 C-terminal 12 aa]	0.712 ± 0.014	0.669 ± 0.011
TSNDLPAECVIS [EGH1 C-terminal 12 aa]	0.72 ± 0.0097	0.68843 ± 0.00034
ITTKRSLCSSKD [PEX25 C-terminal 12 aa]	0.673 ± 0.015	0.695 ± 0.02
LEKLCQKQSSTK [CMC1 C-terminal 12 aa]	0.724 ± 0.022	0.712 ± 0.066
